Measured values reported in patent publication US20260232827A1 (Zymeworks, published 2026).

B1: v18993 (lifastuzumab), reference anti-NaPi2b antibody (antibody, human IgG1, kappa)
heavy 1: GEVQLVESGGGLVQPGGSLRLSCAASGFSFSDFAMSWVRQAPGKGLEWVATIGRVAFHTYYPDSMKGRFTISRDNSKNTLYLQMNSLRAEDTAVYYCARHRGFDVGHFDFWGQGTLVTVSSASTKGPSVFPLAPSSKSTSGGTAALGCLVKDYFPEPVTVSWNSGALTSGVHTFPAVLQSSGLYSLSSVVTVPSSSLGTQTYICNVNHKPSNTKVDKKVEPKSCDKTHTCPPCPAPELLGGPSVFLFPPKPKDTLMISRTPEVTCVVVDVSHEDPEVKFNWYVDGVEVHNAKTKPREEQYNSTYRVVSVLTVLHQDWLNGKEYKCKVSNKALPAPIEKTISKAKGQPREPQVYVYPPSRDELTKNQVSLTCLVKGFYPSDIAVEWESNGQPENNYKTTPPVLDSDGSFALVSKLTVDKSRWQQGNVFSCSVMHEALHNHYTQKSLSLSPG
heavy 2: not shown
light: GDIQMTQSPSSLSASVGDRVTITCRSSETLVHSSGNTYLEWYQQKPGKAPKLLIYRVSNRFSGVPSRFSGSGSGTDFTLTISSLQPEDFATYYCFQGSFNPLTFGQGTKVEIKRTVAAPSVFIFPPSDEQLKSGTASVVCLLNNFYPREAKVQWKVDNALQSGNSQESVTEQDSKDSTYSLSSTLTLSKADYEKHKVYACEVTHQGLSSPVTKSFNRGEC
B2: v18992 (MX35), reference anti-NaPi2b antibody (antibody, human IgG1, kappa)
heavy 1: GQVQLVQSGAEVVKPGASVKMSCKASGYTFTGYNIHWVKQAPGQGLEWIGAIYPGNGDTSYKQKFRGRATLTADTSTSTVYMELSSLRSEDSAVYYCARGETARATFAYWGQGTLVTVSSASTKGPSVFPLAPSSKSTSGGTAALGCLVKDYFPEPVTVSWNSGALTSGVHTFPAVLQSSGLYSLSSVVTVPSSSLGTQTYICNVNHKPSNTKVDKKVEPKSCDKTHTCPPCPAPELLGGPSVFLFPPKPKDTLMISRTPEVTCVVVDVSHEDPEVKFNWYVDGVEVHNAKTKPREEQYNSTYRVVSVLTVLHQDWLNGKEYKCKVSNKALPAPIEKTISKAKGQPREPQVYVYPPSRDELTKNQVSLTCLVKGFYPSDIAVEWESNGQPENNYKTTPPVLDSDGSFALVSKLTVDKSRWQQGNVFSCSVMHEALHNHYTQKSLSLSPG
heavy 2: not shown
light: GDIQMTQSPSSLSASVGDRVTITCSASQDIGNFLNWYQQKPGKTVKVLIYYTSSLYSGVPSRFSGSGSGTDYTLTISSLQPEDFATYYCQQYSKLPLTFGQGTKLELKRTVAAPSVFIFPPSDEQLKSGTASVVCLLNNFYPREAKVQWKVDNALQSGNSQESVTEQDSKDSTYSLSSTLTLSKADYEKHKVYACEVTHQGLSSPVTKSFNRGEC
B3: v38591 (humanized anti-NaPi2b antibody, H1L2, wild-type Fc, heavy chains with C-terminal lysine) (antibody, human IgG1, kappa)
heavy: not shown
light: DVQMTQSPSSLSASVGDRVTITCRASQDVYSYLNWYQQKPGKAVKLLIYYTSRLQSGVPSRFSGSGSGTDYTLTISSLQPEDFATYYCQQYNIFPWTFGQGTKLEIKRTVAAPSVFIFPPSDEQLKSGTASVVCLLNNFYPREAKVQWKVDNALQSGNSQESVTEQDSKDSTYSLSSTLTLSKADYEKHKVYACEVTHQGLSSPVTKSFNRGEC
notes: Full-size human IgG1/kappa antibody; also called v38591 (wild-type Fc)
B4: MX35 (v18992), reference anti-NaPi2b antibody (antibody, human IgG1, kappa)
heavy 1: B2 heavy 1
heavy 2: not shown
light: B2 light
B5: lifastuzumab (v18993), reference anti-NaPi2b antibody (antibody, human IgG1, kappa)
heavy 1: B1 heavy 1
heavy 2: not shown
light: B1 light
B6: palivizumab (v21995), anti-RSV antibody, negative control (antibody, human IgG1, kappa, V domains shown)
VH: QVTLRESGPALVKPTQTLTLTCTFSGFSLSTSGMSVGWIRQPPGKALEWLADIWWDDKKDYNPSLKSRLTISKDTSKNQVVLKVTNMDPADTATYYCARSMITNWYFDVWGAGTTVTVSS
VL: DIQMTQSPSTLSASVGDRVTITCKSQLSVGYMHWYQQKPGKAPKLLIYDTSKLASGVPSRFSGSGSGTEFTLTISSLQPDDFATYYCFQGSGYPFTFGGGTKLEIKR

Key:
[1] = molecular target: T1, human sodium-dependent phosphate transporter 2B (NaPi2b) (human, UniProt O95436 1-690); assay: flow cytometry, HEK293-6e cells transfected with human NaPi2b
T1 construct: UniProt ID is given as 095436 [sic]; also called hNaPi2b; Hu NaPi2b
T1 sequence: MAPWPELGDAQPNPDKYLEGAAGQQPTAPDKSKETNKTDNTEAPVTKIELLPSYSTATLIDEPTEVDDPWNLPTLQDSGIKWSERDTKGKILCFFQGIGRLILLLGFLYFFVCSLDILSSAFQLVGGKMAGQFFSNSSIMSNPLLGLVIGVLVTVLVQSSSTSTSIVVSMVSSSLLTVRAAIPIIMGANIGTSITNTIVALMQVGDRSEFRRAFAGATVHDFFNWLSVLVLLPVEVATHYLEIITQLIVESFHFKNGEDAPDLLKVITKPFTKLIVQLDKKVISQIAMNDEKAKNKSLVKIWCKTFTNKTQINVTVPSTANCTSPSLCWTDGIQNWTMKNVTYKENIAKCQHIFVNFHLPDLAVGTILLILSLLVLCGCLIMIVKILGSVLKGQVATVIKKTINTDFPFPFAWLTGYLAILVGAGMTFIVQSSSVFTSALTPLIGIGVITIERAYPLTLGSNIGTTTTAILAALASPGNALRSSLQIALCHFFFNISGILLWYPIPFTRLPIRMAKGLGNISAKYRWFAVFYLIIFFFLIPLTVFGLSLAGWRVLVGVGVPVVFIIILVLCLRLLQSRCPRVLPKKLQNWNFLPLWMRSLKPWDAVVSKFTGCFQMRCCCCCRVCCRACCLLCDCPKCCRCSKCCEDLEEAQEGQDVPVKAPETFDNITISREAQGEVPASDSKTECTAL

[2] = molecular target: T2, cynomolgus monkey NaPi2b (cynomolgus monkey, UniProt O95436 1-690 (human entry)); assay: flow cytometry, HEK293-6e cells transfected with cynomolgus NaPi2b
T2 construct: also called Cyno NaPi2b; Cy NaPi2b
T2 chain: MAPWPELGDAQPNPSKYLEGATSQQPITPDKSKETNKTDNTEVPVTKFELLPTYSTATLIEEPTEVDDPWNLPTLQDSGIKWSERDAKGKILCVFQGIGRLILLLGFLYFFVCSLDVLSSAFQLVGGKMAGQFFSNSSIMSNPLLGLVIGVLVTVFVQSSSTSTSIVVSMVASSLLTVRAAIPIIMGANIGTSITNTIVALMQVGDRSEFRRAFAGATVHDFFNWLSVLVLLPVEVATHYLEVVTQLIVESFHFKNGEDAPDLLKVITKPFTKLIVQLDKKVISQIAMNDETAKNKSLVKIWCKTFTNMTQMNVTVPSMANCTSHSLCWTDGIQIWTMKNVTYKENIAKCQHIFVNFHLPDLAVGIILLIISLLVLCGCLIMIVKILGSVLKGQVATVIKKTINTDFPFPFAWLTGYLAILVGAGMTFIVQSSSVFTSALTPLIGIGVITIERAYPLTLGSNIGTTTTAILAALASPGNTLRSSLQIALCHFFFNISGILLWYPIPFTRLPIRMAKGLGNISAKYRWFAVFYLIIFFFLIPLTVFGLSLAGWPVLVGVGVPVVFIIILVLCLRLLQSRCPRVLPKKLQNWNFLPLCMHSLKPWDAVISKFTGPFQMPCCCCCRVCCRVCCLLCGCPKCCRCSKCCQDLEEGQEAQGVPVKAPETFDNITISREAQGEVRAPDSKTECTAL

[3] = molecular target: T1, human sodium-dependent phosphate …; assay: flow cytometry, HEK293-6e cells transfected with human NaPi2b; apparent Kd
[4] = molecular target: T2, cynomolgus monkey NaPi2b; assay: flow cytometry, HEK293-6e cells transfected with cynomolgus NaPi2b; apparent Kd
[5] = molecular target: T3, Construct 6 (human NaPi2b del 317-333) (human, UniProt O95436 1-690); assay: flow cytometry, transfected HEK293-6e cells, antibody 20 nM
T3 construct: also called CL_#29919
T3 sequence: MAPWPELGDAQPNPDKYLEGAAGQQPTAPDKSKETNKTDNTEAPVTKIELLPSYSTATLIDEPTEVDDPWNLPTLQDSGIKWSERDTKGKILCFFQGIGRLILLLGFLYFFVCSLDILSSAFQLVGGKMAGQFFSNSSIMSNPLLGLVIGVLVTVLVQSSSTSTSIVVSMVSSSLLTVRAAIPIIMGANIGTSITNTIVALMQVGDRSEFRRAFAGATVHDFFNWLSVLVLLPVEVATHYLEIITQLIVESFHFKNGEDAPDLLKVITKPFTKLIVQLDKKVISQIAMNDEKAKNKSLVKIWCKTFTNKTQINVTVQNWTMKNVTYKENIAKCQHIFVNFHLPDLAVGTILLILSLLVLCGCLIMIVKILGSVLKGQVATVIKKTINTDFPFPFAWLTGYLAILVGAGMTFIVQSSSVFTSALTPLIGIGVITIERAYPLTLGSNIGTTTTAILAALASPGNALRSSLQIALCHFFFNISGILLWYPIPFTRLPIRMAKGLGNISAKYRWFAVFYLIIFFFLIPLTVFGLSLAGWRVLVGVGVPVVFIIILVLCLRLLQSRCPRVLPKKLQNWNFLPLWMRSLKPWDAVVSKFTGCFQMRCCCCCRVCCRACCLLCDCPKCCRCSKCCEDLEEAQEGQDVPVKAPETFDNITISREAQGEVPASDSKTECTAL

[6] = molecular target: T4, Full length human NaPi2b (sodium-dependent phosphate transporter 2B, SLC34A2) (human, UniProt O95436 1-690); assay: as above
T4 construct: also called huNaPi2b; CL_#13432
T4 sequence: T1 sequence

[7] = molecular target: T5, Construct 2 (chimeric human NaPi2b, swap in NaPi2c in 280-301) (human); assay: as above
T5 construct: also called CL_#29915

[8] = molecular target: T6, Construct 1 (chimeric human NaPi2b, swap in NaPi2c in 239-259) (human); assay: as above
T6 construct: also called CL_#29914

[9] = molecular target: T7, Construct 5 (chimeric human NaPi2b, swap in NaPi2a in 304-348) (human); assay: as above
T7 construct: also called CL_#13436

Row | Binder | Bmax [1] | Bmax [2] | Kd [3] | Kd [4] | Background-Subtracted AF647 Mean Fluorescence Intensity [5] | Background-Subtracted AF647 Mean Fluorescence Intensity [6] | Background-Subtracted AF647 Mean Fluorescence Intensity [7] | Background-Subtracted AF647 Mean Fluorescence Intensity [8] | Background-Subtracted AF647 Mean Fluorescence Intensity [9]
1 | B1 | 1610 | 1560 | 1.22 nM | 6.27 nM | – | – | – | – | –
2 | B2 | 1900 | 2360 | 1.98 nM | 31 nM | – | – | – | – | –
3 | B3 | – | – | – | – | -7 MFI | 1420 MFI | 1340 MFI | 1860 MFI | –
4 | B4 | – | – | – | – | 67 MFI | 1250 MFI | 1250 MFI | 1820 MFI | 79 MFI
5 | B5 | – | – | – | – | -3 MFI | 1370 MFI | 1200 MFI | 1700 MFI | 52 MFI
6 | B6 | – | – | – | – | 1 MFI | 13 MFI | -64 MFI | -27 MFI | 123 MFI
